Laboratory results published in article PMC11077054.

Legend:
[1] = molecular target: nYFP-CmoNAC1 (pumpkin)
[2] = molecular target: nYFP-CmoNAC1 (pumpkin); remark: listed apart in the source

CmoDREB2A-cYFP (natural protein)
LUC/RLU ratio of the reporter with the NACbs of the CmoNCED6 promoter in tobacco: CmoNAC1 + CmoDREB2A against CmoNAC1 alone [1]: 87% | LUC/RLU ratio of the reporter with the NACbs of the CmoRBOHD1 promoter in tobacco: CmoNAC1 + CmoDREB2A against CmoNAC1 alone [1]: 67% | LUC/RLU ratio of the reporter with the NACbs of the CmoAKT1;2 promoter in tobacco: CmoDREB2A + CmoNAC1 against CmoNAC1 alone [2]: 99% | LUC/RLU ratio of the reporter with the NACbs of the CmoHKT1;1 promoter in tobacco: CmoDREB2A + CmoNAC1 against CmoNAC1 alone [2]: 107%
